Paper PMC3686713

Tested on: OmpR (phosphorylated with acetyl phosphate) (Yersinia pseudotuberculosis IP31758)
Assay: EMSA

Substance: T6SS-4 promoter
- binding: 40 nM

Substance: ompF promoter
- binding: 20 nM
